Measured values from patent US20120316071A1 (published 2012).
Substitutions are numbered along the chain they refer to. Names may count otherwise. One block for each binder: values may come before it.

Key:
[1] = biological target: T1, Recombinant Human DLL4 (R&D Systems Cat#1506-D4/CF) (human, UniProt Q9NR61 27-524); experiment: ELISA titration, 2-fold dilutions from 20 nM Fab
T1 construct: bought recombinant protein; also called rHuman DLL4; delta-like protein 4

[2] = biological target: T2, Recombinant Human DLL4 (delta-like protein 4) (human, UniProt Q9NR61 27-524); experiment: ELISA, DLL4 coated on plate, Fab at 0.31 nM, absorbance at 450 nm
T2 construct: Bought recombinant protein (R&D Systems Cat#1506-D4/CF) coated on the ELISA plate; also called rHuman DLL4; Delta-like 4

[3] = biological target: T2, Recombinant Human DLL4 (delta-like …); experiment: ELISA, DLL4 coated on plate, Fab at 1.3 nM, absorbance at 450 nm
[4] = biological target: T2, Recombinant Human DLL4 (delta-like …); experiment: ELISA, DLL4 coated on plate, Fab at 5 nM, absorbance at 450 nm
[5] = biological target: T2, Recombinant Human DLL4 (delta-like …); experiment: ELISA, DLL4 coated on plate, Fab at 10 nM, absorbance at 450 nm
[6] = biological target: T2, Recombinant Human DLL4 (delta-like …); experiment: ELISA, DLL4 coated on plate, Fab at 2.5 nM, absorbance at 450 nm
[7] = biological target: T2, Recombinant Human DLL4 (delta-like …); experiment: ELISA, DLL4 coated on plate, Fab at 0.16 nM, absorbance at 450 nm
[8] = biological target: T2, Recombinant Human DLL4 (delta-like …); experiment: ELISA, DLL4 coated on plate, Fab at 0.63 nM, absorbance at 450 nm
[9] = biological target: T2, Recombinant Human DLL4 (delta-like …); experiment: ELISA, DLL4 coated on plate, Fab at 20 nM, absorbance at 450 nm
[10] = biological target: T3, Recombinant Human DLL4 (delta-like protein 4) (human, UniProt Q9NR61 27-524); experiment: ELISA, DLL4 coated plate, Fab in solution; average signal minus noise
T3 construct: Bought recombinant human DLL4 (R&D Systems Cat#1506-D4/CF), coated on the plate; also called rHuman DLL4; Delta-like 4

[11] = biological target: T3, Recombinant Human DLL4 (delta-like …); experiment: ECL (MSD) 96-well plate assay, recombinant human DLL4 coated, Fab in solution
[12] = biological target: T4, rHuman IGF-1 sR (insulin-like growth factor-1 soluble receptor), CF (R&D Systems Cat#391-GR) (human, UniProt P08069 31-932); experiment: ECL Multispot (MSD) assay, antigen spotted on plate, 10 nM Fab;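 note: purified Fab bound to antigen spots for 1 h at 20 °C, then TAG detection antibody, electrochemiluminescence compared with each well's blank, ratio of 4 or more marks a hit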
T4 construct: Bought recombinant soluble receptor

[13] = biological target: T5, rHuman HGF R/c-MET/Fc Chimera, CF (R&D Systems Cat#358-MT/CF) (human, UniProt P08581 25-932); experiment: as above
T5 construct: Bought recombinant protein; also called HGF R/Fc

[14] = biological target: T6, rHuman P-Cadherin/Fc Chimera, CF (R&D Systems Cat#861-PC) (human, UniProt P22223 108-654); experiment: as above
T6 construct: Bought recombinant protein

[15] = biological target: T7, rHuman ErbB2/Fc Chimera, CF (R&D Systems Cat#1129-ER) (human, UniProt P04626 23-652); experiment: as above
T7 construct: Bought recombinant protein

[16] = biological target: T8, Recombinant Human DLL4 (R&D Systems Cat#1506-D4/CF) (human, UniProt Q9NR61 27-524); experiment: as above
T8 construct: Bought recombinant protein; also called delta-like protein 4; rHuman DLL4

[17] = biological target: T9, rHuman EGF R/Fc Chimera, CF (R&D Systems Cat#344-ER) (human, UniProt P00533 25-645); experiment: as above
T9 construct: Bought recombinant protein

[18] = biological target: T8, Recombinant Human DLL4 (R&D Systems …); experiment: ECL (MSD) binding assay, DLL4 signal divided by blank, repeat experiment
[19] = biological target: T8, Recombinant Human DLL4 (R&D Systems …); experiment: ECL (MSD) binding assay, immobilised DLL4, repeat experiment
Recombinant Human DLL4 = biological target: T10, Recombinant Human DLL4 (human, UniProt Q9NR61 27-524); experiment: ECL (MSD) multispot binding assay, DLL4 spotted on plate, Fab in solution
T10 construct: also called delta-like protein 4; rHuman DLL4

T5 sequence (P08581 25-932, change not shown): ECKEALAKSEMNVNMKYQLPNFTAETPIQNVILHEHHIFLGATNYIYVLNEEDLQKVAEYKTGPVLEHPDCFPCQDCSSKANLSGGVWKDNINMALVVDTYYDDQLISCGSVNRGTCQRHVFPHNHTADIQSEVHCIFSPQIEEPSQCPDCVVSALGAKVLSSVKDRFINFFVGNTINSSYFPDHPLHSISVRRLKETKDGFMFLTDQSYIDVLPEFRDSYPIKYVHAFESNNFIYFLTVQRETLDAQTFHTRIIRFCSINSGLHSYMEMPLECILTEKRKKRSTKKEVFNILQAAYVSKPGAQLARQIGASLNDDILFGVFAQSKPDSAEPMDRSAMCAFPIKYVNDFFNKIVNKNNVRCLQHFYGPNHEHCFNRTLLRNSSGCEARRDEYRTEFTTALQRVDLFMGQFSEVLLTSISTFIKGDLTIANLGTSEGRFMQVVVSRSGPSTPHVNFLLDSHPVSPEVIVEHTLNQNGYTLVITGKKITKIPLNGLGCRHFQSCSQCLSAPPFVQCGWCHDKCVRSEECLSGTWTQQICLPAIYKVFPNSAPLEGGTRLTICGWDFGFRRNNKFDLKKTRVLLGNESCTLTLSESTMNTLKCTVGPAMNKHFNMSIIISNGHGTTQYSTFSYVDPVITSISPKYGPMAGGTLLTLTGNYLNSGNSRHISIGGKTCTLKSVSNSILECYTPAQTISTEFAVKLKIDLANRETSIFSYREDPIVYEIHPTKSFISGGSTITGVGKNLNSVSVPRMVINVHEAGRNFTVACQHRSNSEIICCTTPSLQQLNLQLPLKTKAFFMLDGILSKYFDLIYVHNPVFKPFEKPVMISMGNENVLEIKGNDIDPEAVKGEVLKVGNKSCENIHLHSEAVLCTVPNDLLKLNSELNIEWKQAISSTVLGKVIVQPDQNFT

Kd [1]: 1 to 10 nM
B1: Fab VH1-46_IGHD6-6*01_IGHJ1*01 S102A/S103P/S104F/H111F I51E/N52L/S54T/G56H & L6_IGKJ1*01 (Fab, V domains shown)
VH: QVQLVQSGAEVKKPGASVKVSCKASGYTFTSYYMHWVRQAPGQGLEWMGIELPTGHSTSYAQKFQGRVTMTRDTSTSTVYMELSSLRSEDTAVYYCAREEYAPFSAEYFQFWGQGTLVTVSS
VL: not shown
notes: Fab; also called APFF ELTH

ELISA signal [2]: 2.4
ELISA signal [3]: 0.653
ELISA signal [4]: 2.48
ELISA signal [5]: 2.35
ELISA signal [6]: 2.15
ELISA signal [7]: 2.35
ELISA signal [8]: 1.37
ELISA signal [9]: 2.4
B2: Fab VH1-46_IGHD6-6*01_IGHJ1*01 S102A/S103P/S104F/H111F/N52L/S54T/G56H (APFF LTH) & L6_IGKJ1*01 (Fab, V domains shown)
VH: B1 VH with E51I
VL: not shown
notes: Tested as a Fab made in E. coli: VH cloned into Plasmid A (CH1, His6 and Flag tags), kappa VL into Plasmid C (kappa CL); also called H:APFF LTH & L:wt

ELISA (Avgerage signal-noise) [10]: 0.214
ECL signal [11]: 17200
B3: Fab VH1-46_IGHD6-6*01_IGHJ1*01 S102A/S103P/S104F/H111F (H:APFF) & L6_IGKJ1*01 S28N/S30D/S31H (L:NDH) (Fab, V domains shown)
VH: B1 VH with E51I, L52N, T54S, H56G
VL: EIVLTQSPATLSLSPGERATLSCRASQNVDHYLAWYQQKPGQAPRLLIYDASNRATGIPARFSGSGSGTDFTLTISSLEPEDFAVYYCQQRSNWPPWTFGQGTKVEIKR
notes: Parent template of this NNK series; Fab made in E. coli: heavy chain from Plasmid A (CH1, His6 and Flag tags), kappa light chain from Plasmid C (kappa CL); also called H:APFF & L:NDH

ECL signal [12]: 397
ECL signal [13]: 347
ECL signal [14]: 347
ECL signal [15]: 354
ECL signal [16]: 78400
ECL signal [17]: 383
Signal/Noise [18]: 694
ECL signal [19]: 197000
B4: Fab VH1-46_IGHD6-6*01_IGHJ1*01 S102A/S103P/S104F/H111F (APFF) & L6_IGKJ1*01 (Fab, V domains shown)
VH: B1 VH with E51I, L52N, T54S, H56G
VL: not shown
notes: Tested as Fab expressed in E. coli; Heavy chain from Plasmid A (CH1, His6 and Flag tags), kappa light chain from Plasmid C (CL); also called H:APFF & L:wt

ELISA signal [2]: 1.63
ELISA signal [3]: 0.143
ELISA signal [4]: 1.75
ELISA signal [5]: 1.36
ELISA signal [6]: 1.17
ELISA signal [7]: 1.36
ELISA signal [8]: 0.419
ELISA signal [9]: 1.63
B5: Fab VH1-46_IGHD6-6*01_IGHJ1*01 S102A/S103P/S104F/H111F/I51N/N52L/S54T/G56H (APFF NLTH) & L6_IGKJ1*01 (Fab, V domains shown)
VH: B1 VH with E51N
VL: not shown
notes: Tested as a Fab made in E. coli: VH in Plasmid A (CH1, His6 and Flag tags), kappa VL in Plasmid C (kappa CL)

ELISA signal [2]: 0.648
ELISA signal [3]: 0.055
ELISA signal [4]: 0.724
ELISA signal [5]: 0.506
ELISA signal [6]: 0.358
ELISA signal [7]: 0.506
ELISA signal [8]: 0.115
ELISA signal [9]: 0.648
B6: Fab VH1-46_IGHD6-6*01_IGHJ1*01 S102A/S103P/S104F/H111F I51T/N52V (APFF I51T/N52V) & L6_IGKJ1*01 (Fab, V domains shown)
VH: B1 VH with E51T, L52V, T54S, H56G
VL: not shown
notes: as for B5

ELISA signal [2]: 2.29
ELISA signal [3]: 0.402
ELISA signal [4]: 2.33
ELISA signal [5]: 2.17
ELISA signal [6]: 1.98
ELISA signal [7]: 2.17
ELISA signal [8]: 1.01
ELISA signal [9]: 2.29
B7: Fab VH1-46_IGHD6-6*01_IGHJ1*01 S102A/S103P/S104F/H111F/I51E/N52L/S54T/G56H (APFF ELTH) & L6_IGKJ1*01 (Fab, V domains shown)
VH: B1 VH
VL: not shown
notes: as for B5

Kd [1]: 1 to 10 nM
B8: Fab VH1-46_IGHD6-6*01_IGHJ1*01 S102A/S103P/S104F/H111F I51N/N52L/S54T/G56H & L6_IGKJ1*01 (Fab, V domains shown)
VH: B1 VH with E51N
VL: not shown
notes: Fab; also called APFF NLTH

ECL signal (Recombinant Human DLL4): 33800
B9: Fab VH1-46_IGHD6-6*01_IGHJ1*01 S102A/S103P/S104F/H111F (APFF) & L6_IGKJ1*01 W94M (Fab, V domains shown)
VH: B1 VH with E51I, L52N, T54S, H56G
VL: B3 VL with N28S, D30S, H31S, W94M
notes: Fab from E. coli; VH in Plasmid A (CH1, His6 and Flag tags), VL in Plasmid C (kappa CL); also called APFF & W94M

ECL signal (Recombinant Human DLL4): 11600
B10: Fab VH1-46_IGHD6-6*01_IGHJ1*01 S102A/S103P/S104F/H111F (APFF) & L6_IGKJ1*01 W94L (Fab, V domains shown)
VH: B1 VH with E51I, L52N, T54S, H56G
VL: B3 VL with N28S, D30S, H31S, W94L
notes: Fab from E. coli; VH in Plasmid A (CH1, His6 and Flag tags), VL in Plasmid C (kappa CL); also called APFF & W94L
